Target: T1, TfR (Biotinylated; site and any biotin-acceptor or purification tag are not stated in the passages seen.)
T1 construct: also called biotinylated TfR ectodomain; control protein
Test: flow cytometry, 293F cells displaying YAP (SDGF), co-incubated with biotinylated TfR ectodomain (control protein) and streptavidin-Alexa647

T1 sequence (chain, as listed by the source limits assumed): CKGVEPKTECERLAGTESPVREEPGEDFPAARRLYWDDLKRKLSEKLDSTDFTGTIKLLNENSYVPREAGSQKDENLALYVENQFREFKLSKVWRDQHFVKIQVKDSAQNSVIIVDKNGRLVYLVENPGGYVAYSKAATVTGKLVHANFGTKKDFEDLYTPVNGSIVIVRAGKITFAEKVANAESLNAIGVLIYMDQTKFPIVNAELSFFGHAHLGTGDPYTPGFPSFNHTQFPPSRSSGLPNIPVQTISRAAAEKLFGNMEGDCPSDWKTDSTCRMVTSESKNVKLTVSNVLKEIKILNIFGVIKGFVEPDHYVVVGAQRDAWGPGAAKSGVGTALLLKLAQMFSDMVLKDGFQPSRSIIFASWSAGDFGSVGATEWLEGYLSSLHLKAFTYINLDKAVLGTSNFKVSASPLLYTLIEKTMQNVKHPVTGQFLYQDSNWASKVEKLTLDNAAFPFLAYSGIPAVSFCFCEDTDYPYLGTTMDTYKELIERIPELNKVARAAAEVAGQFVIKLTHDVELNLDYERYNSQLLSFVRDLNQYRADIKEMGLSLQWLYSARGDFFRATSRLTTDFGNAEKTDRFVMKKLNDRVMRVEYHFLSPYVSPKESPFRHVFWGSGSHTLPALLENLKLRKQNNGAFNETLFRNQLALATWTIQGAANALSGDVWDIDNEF

B1: SDGF-YAP (50-171), surface-tethered on HEK-293 cells (other, UniProt P46937 50-171, looked up)
chain: AGHQIVHVRGDSETDLEALFNAVMNPKTANVPQTVPMRLRKLPDSFFKPPEPKSHSRQASTDAGTAGALTPQHVRAHSSPASLQLGAVSPGTLTPTGVVSGPAATPTAQHLRQSSFEIPDDV
- binding result: no binding (tested: not shown on the sheet)
